In EP1257648B2 (AMGEN INC., dated 2016):
“And” between values parts separate entries of the source, which are not always exact repeats. Identical values can stand only once.

T1: human OPGbp[143-317] (human, UniProt O14788 143-317)
T1 sequence (looked up): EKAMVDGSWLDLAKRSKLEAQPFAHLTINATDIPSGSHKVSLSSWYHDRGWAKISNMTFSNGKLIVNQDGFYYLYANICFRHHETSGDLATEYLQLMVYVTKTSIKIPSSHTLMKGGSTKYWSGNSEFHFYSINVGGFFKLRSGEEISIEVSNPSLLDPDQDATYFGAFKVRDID

B1: Fab "AT" (Fab, V domains shown)
VH: QVQLVQSGAEVRKPGASVKVSCKASGYDFSNYAIHWVRQAPGQRLEWMGWINAGNGNTKFSQKFQGRITVTRDTAASTAYMELRSLRSEDTAVYYCARDSSNMVRGIIIAYYFDYWGQGTLVTVSS
VL: EIVMTQSPSSLSASVGDRVTITCRASQSISRYLNWYQLKPGKAPRLLIYGASSLQSGVPSRFSGSGSGAEFTLTISSLQPEDIATYYCQHTRAFGQGTKVEIKR
B2: "AT" antibody (antibody, V domains shown)
VH: B1 VH
VL: B1 VL
B3: human OPG [22-194]-Fc (Fc fusion, UniProt O00300 22-194, looked up, not shown: a dimerising Fc or GST)
chain: ETFPPKYLHYDEETSHQLLCDKCPPGTYLKQHCTAKWKTVCAPCPDHYYTDSWHTSDECLYCSPVCKELQYVKQECNRTHNRVCECKEGRYLEIEFCLKHRSCPPGFGVVQAGTPERNTVCKRCPDGFFSNETSSKAPCRKHTNCSVFGLLLTQKGNATHDNICSGNSESTQK

Target: T1, human OPGbp[143-317]
Assay: cell-based or functional assay

Binder | IC50, RAW cell assay (TRAP) | IC50, murine bone marrow osteoclast formation assay (TRAP, pNPP) | IC50, bone marrow assay (TRAP) | IC50, murine bone marrow assay (TRAP) | IC50, RAW cell assay (TRAP), positive control
B1 | 15 µg/ml and 300 nM | 57.8 nM |  |  | 
B2 | 60.3 nM and 21.4 nM and 3 ug/ml and 9 ug/ml and 3.2 ug/ml and 20.1 nM |  | 2.35 µg/ml and 14.4 nM | 2.15 ug/ml and 14.4 nM and 1.85 ug/ml and 12.5 nM | 
B3 |  |  |  |  | 33 ng/mL
